B1: OR4K15 (parent)
chain: GUUAACGGUCAUAGGCCAUGGAAACUAGGAGCACCAUUUCGCUGCCAGUGAAGAAAUGAACAAAGAAAAUCUGGGCCAGGCAGGCAUCAAAAGAAAUAGUCUUGCGCUCAACCAGAAAGUCUGUAAUCAUUUUAAGGGUA

Variants of: B1
Test: self-cleavage, relative activity (ratio to wild type); higher = more cleavage; in vitro, sequencing; the parent is a self-cleaving ribozyme
For C17U A94G, the self-cleavage was 1.32. Variant U19C A89G has a self-cleavage of 1.5. Work on U19C A89U yielded a self-cleavage of 1.15. Variant C16U A30U has a self-cleavage of 1. Work on C16U A30G yielded a self-cleavage of 1.27. Variant U19A U26A has a self-cleavage of 1.58. A18G G138A gave a self-cleavage of 1.27. For A18G A69G, the self-cleavage was 1.9. A18G A110U gave a self-cleavage of 1.32. In the case of A18G A30U, the self-cleavage is reported as 1.01. For A18G A30G, the self-cleavage was 0.88. G15A U43C showed a self-cleavage of 1.35. For U19A U49A, the self-cleavage was 1.05. With U19A U39C the self-cleavage was 0.99. Variant U19A A110C has a self-cleavage of 0.3. With A18G A98G the self-cleavage was 0.59. A18U A24G gave a self-cleavage of 1.31. A18C U39A gave a self-cleavage of 1.48. Variant G15A U103C has a self-cleavage of 0.82. Variant A18U A96C has a self-cleavage of 1.02. For C16U A55G, the self-cleavage was 1.63. In the case of G15U A56G, the self-cleavage is reported as 1.89. With A18U A52G the self-cleavage was 1.7. In the case of A18U U103C, the self-cleavage is reported as 1.29. U19A A89G gave a self-cleavage of 0.78. Variant A18G U102A has a self-cleavage of 1.13. Work on A18G U102C yielded a self-cleavage of 1.64. A18U U19A showed a self-cleavage of 1.53. Variant A18U U19C has a self-cleavage of 0.12. For A18C U127C, the self-cleavage was 0.63. U19A C25U showed a self-cleavage of 1.86. U19A A24G gave a self-cleavage of 0.29. In the case of C17U U38A, the self-cleavage is reported as 1.03. In the case of A18U U87C, the self-cleavage is reported as 1.41. For A18U U87A, the self-cleavage was 1.04. A18U U131C showed a self-cleavage of 0.74. A18G U26A gave a self-cleavage of 1.1. Work on C17A A135C yielded a self-cleavage of 1.23. With U19A U72A the self-cleavage was 0.21. With U19C A82G the self-cleavage was 0.61. Work on C17U U131A yielded a self-cleavage of 0.93. In the case of C17U U131C, the self-cleavage is reported as 0.73. A18U A129G showed a self-cleavage of 1.24. In the case of A18G A114G, the self-cleavage is reported as 0.77. Variant A18G A114U has a self-cleavage of 0.14. In the case of A18U U127C, the self-cleavage is reported as 0.91. Work on U19A U108C yielded a self-cleavage of 0.03. C16U U57C gave a self-cleavage of 1.14. A18C A52G showed a self-cleavage of 1.51. For A18G C105U, the self-cleavage was 0.29. For G15C A111G, the self-cleavage was 0.01. Work on A18G A23U yielded a self-cleavage of 1.88. U19C A51U showed a self-cleavage of 1. For G15A U108A, the self-cleavage was 0.01. For G15A U108C, the self-cleavage was 0. C16A U102C showed a self-cleavage of 1.49. Work on C17A A118G yielded a self-cleavage of 0.97. With A18U G74A the self-cleavage was 0.22. For G15U A118G, the self-cleavage was 1.88. For U19A A59U, the self-cleavage was 1.72. Variant A18U A69U has a self-cleavage of 1.37. With A18U A69G the self-cleavage was 1.92. For A18U C85U, the self-cleavage was 1.37. For A18U U108A, the self-cleavage was 0.02. Variant C16A U57G has a self-cleavage of 0.88. C17A A24G showed a self-cleavage of 1.64. With C16G A55G the self-cleavage was 0.86. A18G A78G showed a self-cleavage of 0.33. For C16U A114G, the self-cleavage was 0.2. Work on A18U U43C yielded a self-cleavage of 1.42. Variant A18U U43G has a self-cleavage of 1.5. For U19A A86U, the self-cleavage was 1.87. With U19C A47G the self-cleavage was 0.41. Work on U19C A36U yielded a self-cleavage of 1.76. In the case of U19C A36G, the self-cleavage is reported as 2.03. With A18U A22G the self-cleavage was 1.12. In the case of C17U A135G, the self-cleavage is reported as 1.05. In the case of G15A U19C, the self-cleavage is reported as 0. C16G U124A gave a self-cleavage of 0.77. Variant G15A U72C has a self-cleavage of 0.37. Work on G15A A64U yielded a self-cleavage of 1.37. In the case of C17A U19C, the self-cleavage is reported as 0.87. A18C A129G showed a self-cleavage of 0.75. Variant A18U A33G has a self-cleavage of 0.61. Variant A18U A33C has a self-cleavage of 1.61. Work on U19A A66U yielded a self-cleavage of 1.07. U19A A66G showed a self-cleavage of 1.27. For U19A A96G, the self-cleavage was 1.64. A18U A36G showed a self-cleavage of 1.65. A18U A59G gave a self-cleavage of 1.2. With A18U A59U the self-cleavage was 0.69. U19A A129G gave a self-cleavage of 0.05. U19A G31A showed a self-cleavage of 1.02. Variant C16G A24G has a self-cleavage of 0.51. A18G C71U gave a self-cleavage of 0.22. With A18U A68U the self-cleavage was 2.28. Variant A18U A68G has a self-cleavage of 0.74. In the case of C17U U124A, the self-cleavage is reported as 1.1. Variant G15C G83A has a self-cleavage of 2.06. Variant A18G A134U has a self-cleavage of 1.88. Variant C16G A89G has a self-cleavage of 0.74. Variant A18G A86C has a self-cleavage of 1.68. For C17U A129G, the self-cleavage was 0.43. For G15A C113G, the self-cleavage was 0.02. In the case of C16A U38C, the self-cleavage is reported as 0.92. With A18U A54G the self-cleavage was 1.28. C17U A118G showed a self-cleavage of 1.1. A18C U108C gave a self-cleavage of 0.01. G15A A33G showed a self-cleavage of 0.94. Work on U19A U102A yielded a self-cleavage of 0.97. For A18U U132C, the self-cleavage was 1.75. A18U U130C showed a self-cleavage of 1.37. For C17U U102C, the self-cleavage was 0.9. C17A U103C showed a self-cleavage of 1.08. In the case of A18G A33U, the self-cleavage is reported as 1.92. Variant C17U A24U has a self-cleavage of 1.29. Work on G15A U131G yielded a self-cleavage of 1.44. Work on C17U A114G yielded a self-cleavage of 0.54. Variant C16G A47U has a self-cleavage of 0.8. Work on U19A U57C yielded a self-cleavage of 0.67. C16U U120C showed a self-cleavage of 1.42. With C16U A118G the self-cleavage was 1.16. U19C A62U gave a self-cleavage of 1.48. With A18G A94U the self-cleavage was 1.4. With G15U A69G the self-cleavage was 1.46. U19C A68G gave a self-cleavage of 1.24. For U19C A68U, the self-cleavage was 1.36. In the case of A18U A55C, the self-cleavage is reported as 1.22. For U19A U97G, the self-cleavage was 1.84. Work on C16U U72A yielded a self-cleavage of 0.53. Work on U19A U103C yielded a self-cleavage of 0.75. In the case of U19A U131A, the self-cleavage is reported as 0.78. U19A A33C gave a self-cleavage of 1.31. U19C A63G gave a self-cleavage of 0.89. With U19C A24G the self-cleavage was 1.28. Work on U19A U43C yielded a self-cleavage of 1.77. U19A C35A showed a self-cleavage of 0.65. With C17U A23G the self-cleavage was 1.37. With G15A A66U the self-cleavage was 1.18. A18U C101A showed a self-cleavage of 0.05. Work on U19A U37C yielded a self-cleavage of 0.9. In the case of C17U A110G, the self-cleavage is reported as 0.05. With G15C the self-cleavage was 1.05. With G15U the self-cleavage was 0.69. Variant A18G U122C has a self-cleavage of 1.32. In the case of C17U U132C, the self-cleavage is reported as 1.02. In the case of A18G A118U, the self-cleavage is reported as 0.64. A18C A47G showed a self-cleavage of 0.59. With U19A A51U the self-cleavage was 2.15. U19A A51G gave a self-cleavage of 1.36. Variant A18G U103A has a self-cleavage of 1.13. Work on A18G U103G yielded a self-cleavage of 0.05. With A18U U37C the self-cleavage was 0.8. C17U A95G gave a self-cleavage of 2.06. A18G U132C showed a self-cleavage of 0.77. With A18U A82G the self-cleavage was 0.46. A18U A82U showed a self-cleavage of 0.16. With U19A A116G the self-cleavage was 1.24. Work on C17U A18U yielded a self-cleavage of 1.26. For A18G U39C, the self-cleavage was 1.77. Variant A18G U39A has a self-cleavage of 1.96. Variant C17A has a self-cleavage of 1.46. In the case of C17U, the self-cleavage is reported as 0.8. Variant C16G A95G has a self-cleavage of 1.06. Variant A18G G50A has a self-cleavage of 0.74. For A18C A68U, the self-cleavage was 1.04. In the case of A18U U133C, the self-cleavage is reported as 2.02.

From the RNAGym collection of RNA variant scans (doi:10.7554/elife.90254)
